Assay results as given in patent US20110151448A1 (GENEPROTECH, published 2011).
Side chains are listed from the residue outwards. Ends that are not written are not given here. hairpin oligonucleotide = not defined here

T1: RAD51 (UniProt Q08297 1-339, limits assumed)
T1 sequence (looked up): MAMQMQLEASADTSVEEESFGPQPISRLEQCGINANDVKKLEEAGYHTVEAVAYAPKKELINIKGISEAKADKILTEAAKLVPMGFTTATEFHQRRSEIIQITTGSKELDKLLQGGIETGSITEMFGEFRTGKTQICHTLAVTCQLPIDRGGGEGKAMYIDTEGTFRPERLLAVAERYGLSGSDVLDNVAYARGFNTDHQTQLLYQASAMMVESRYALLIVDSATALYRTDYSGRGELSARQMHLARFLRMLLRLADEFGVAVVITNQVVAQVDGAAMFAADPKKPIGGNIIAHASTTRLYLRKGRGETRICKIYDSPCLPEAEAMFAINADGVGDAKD


Tests used:
[1] = molecular target: T1, RAD51; test: cell-based or functional assay
[2] = molecular target: T1, RAD51; test: cell-based or functional assay; remark: listed apart in the source

Row | Binder | increase in targeted homologous recombination relative to a conventional targeting vector (HPRT, ends not protected) [1] | increase of targeted recombination compared with the control vector (HP-HPRT) [1] | Fold increase of targeted recombination = ratio of control (HP-HPRT)/ratio of expt. vector (Exp 1, F9 cells) [2] | Fold increase of targeted recombination = ratio of control (HP-HPRT)/ratio of expt. vector (Exp 2, F9 cells) [2] | Fold increase of targeted recombination = ratio of control (HP-HPRT)/ratio of expt. vector (Exp 4, F9 cells) [2] | Fold increase of targeted recombination = ratio of control (HP-HPRT)/ratio of expt. vector (Exp 3, F9 cells) [2] | increase in the relative recombination frequency compared to control (HP-HPRT) [1] | Fold increase of targeted recombination = ratio of control (HP-HPRT)/ratio of expt. vector (Exp 5, F9 cells) [2]
1 | RAD52 bait peptide (mouse RAD52 residues 294-344 with an added C-terminal cysteine), as attached to the targeting vector RAD52-HPRT-NLS (reading uncertain; also: conjugated via oligonucleotide to HPRT targeting DNA) peptide: VAAKHAAVLPAPPKHSTPVTAASELLQEKVVFPDNLEENLEMWDLTPDLEDC([sulfo‑SMCC-hairpin oligonucleotide]) | 3.5 fold | 2.6 fold | 2 fold | 2.2 fold | 2.2 fold | – | – | –
2 | BRC5 negative bait peptide (mouse BRCA2 BRC5 repeat with an added C-terminal cysteine), as attached to the targeting vector BRC5-HPRT-NLS (reading uncertain; also: conjugated via oligonucleotide to HPRT targeting DNA) peptide: SSYPVTEDSALAYYTEDSRKTCVRESSLSKGRKWLREQGDKLGTRNTIKIEC([sulfo‑SMCC-hairpin oligonucleotide]) | – | – | – | – | – | 1.1 fold | – | –
3 | BRC3 bait peptide (mouse BRCA2 residues 1391-1458 with an added C-terminal cysteine), as attached to the targeting vector BRC3-HPRT-NLS (reading uncertain; also: conjugated via oligonucleotide to HPRT targeting DNA) peptide: ERNIKEFNISFQTASGKNTRVSKESLNKSVNIFNRETDELTVISDSLNSKILHGINKDKMHTSSHKKAC([sulfo‑SMCC-hairpin oligonucleotide]) | – | – | – | – | 2.2 fold | – | 1.5 fold | 2.3 fold
